This sample holds only a part of the variants without activity.
Legend:
biotinyl-Met-oxazolone = assay: self-aminoacylation, catalytic enhancement (BMO) (fold over background); higher = more active; k-Seq, kA / k0A0; sequences stand for … in GGGAAUGGAUCCACAUCUACGAAUUC…UUCACUGCAGACUUGACGAAGCUG
Procedure, shortened: (§1)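 Catalytic enhancement equals the median kA over the uncatalyzed rate, the latter read from the low-activity peak of a bimodal Gaussian fit. Values of kA came from fitting each sequence's fraction reacted to a pseudo-first-order model, with 1000 bootstraps. Reacted RNA was captured with streptavidin and quantified by triplicate qPCR and Illumina sequencing after 90 minutes at room temperature with 2–1250 μM biotinyl-aminoacyl-oxazolone and 0.43 μM mutagenized RNA pools bearing a 21-nt variable region.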

biotinyl-Phe-oxazolone = assay: self-aminoacylation, catalytic enhancement (BFO) (fold over background); higher = more active; k-Seq, kA / k0A0; sequences stand for … in GGGAAUGGAUCCACAUCUACGAAUUC…UUCACUGCAGACUUGACGAAGCUG
Procedure, shortened: as §1

biotinyl-Val-oxazolone = assay: self-aminoacylation, catalytic enhancement (BVO) (fold over background); higher = more active; k-Seq, kA / k0A0; sequences stand for … in GGGAAUGGAUCCACAUCUACGAAUUC…UUCACUGCAGACUUGACGAAGCUG
Procedure, shortened: as §1

biotinyl-Ile-oxazolone = assay: self-aminoacylation, catalytic enhancement (BIO) (fold over background); higher = more active; k-Seq, kA / k0A0; sequences stand for … in GGGAAUGGAUCCACAUCUACGAAUUC…UUCACUGCAGACUUGACGAAGCUG
Procedure, shortened: as §1

biotinyl-Trp-oxazolone = assay: self-aminoacylation, catalytic enhancement (BWO) (fold over background); higher = more active; k-Seq, kA / k0A0; sequences stand for … in GGGAAUGGAUCCACAUCUACGAAUUC…UUCACUGCAGACUUGACGAAGCUG
Procedure, shortened: as §1

biotinyl-Leu-oxazolone = assay: self-aminoacylation, catalytic enhancement (BLO) (fold over background); higher = more active; k-Seq, kA / k0A0; sequences stand for … in GGGAAUGGAUCCACAUCUACGAAUUC…UUCACUGCAGACUUGACGAAGCUG
Procedure, shortened: as §1

Sequence | self-aminoacylation (biotinyl-Met-oxazolone) | self-aminoacylation (biotinyl-Phe-oxazolone) | self-aminoacylation (biotinyl-Val-oxazolone) | self-aminoacylation (biotinyl-Ile-oxazolone) | self-aminoacylation (biotinyl-Trp-oxazolone) | self-aminoacylation (biotinyl-Leu-oxazolone)
ACUCACCUAGGUCAUCGGGAG [Fam2.2 aminoacylation ribozyme variant] | 2.48 | 1.04 | 2.08 | 2.33 | 2.46 | 2.28
ACUCACCUAGGUCAUCGGGCG [Fam2.2 aminoacylation ribozyme variant] | 2.66 | 2.07 | 2.63 | 3.12 | 2.63 | 3.85
ACUCACCUAGGUCAUCGGGGG [Fam2.2 aminoacylation ribozyme variant] | 3.42 | 22.1 | 3.19 | 3.75 | 4.06 | 3.57
ACUCACCUAGGUCAUCGGGUG [Fam2.2 aminoacylation ribozyme variant] | 15.9 | 105 | 9.32 | 9.45 | 13.9 | 19.8
ACUCACGUAGGUCAUCGGGUG [Fam2.2 aminoacylation ribozyme variant] | 3.04 | 32.9 | 3.73 | 2.89 | 3.88 | 4.27
ACUCACUUAGGUCAUCGGGUG [Fam2.2 aminoacylation ribozyme variant] | 5.78 | 49.6 | 5.12 | 4.73 | 7.25 | 7.98
ACUCAGCUAGGUCAUCGGGUG [Fam2.2 aminoacylation ribozyme variant] | 4.79 | 30.7 | 4.84 | 4.07 | 7.25 | 4.79
ACUCCCCUGGUCAUCGAGUGA [Fam2.1 aminoacylation ribozyme variant] | 6.39 | 42.7 | 3.69 | 3.18 | 6.48 | 6.71
AGAACCCUGGUCAUCGAGUGA [Fam2.1 aminoacylation ribozyme variant] | 57.5 | 354 | 21.2 | 19.6 | 56.9 | 58.5
AGGUUGGCUAAUAGUCGCAAG [Fam3.1 aminoacylation ribozyme variant] | 1.97 | 2.19 | 1.7 | 1.74 | 2.29 | 1.88
AGGUUUGCGAAUAGUCGCAAG [Fam3.1 aminoacylation ribozyme variant] | 2.24 | 7.75 | 1.75 | 1.63 | 3.06 | 1.82
AGGUUUGCUAAUAGUCGGAAG [Fam3.1 aminoacylation ribozyme variant] | 1.24 | 12.2 | 0.944 | 1.22 | 3.12 | 1.02
AGGUUUGCUAAUAGUCUCAAG [Fam3.1 aminoacylation ribozyme variant] | 1.36 | 9.24 | 1.22 | 1.17 | 2.89 | 1.22
AGGUUUGCUAAUAGUUGCAAG [Fam3.1 aminoacylation ribozyme variant] | 0.863 | 1.44 | 0.924 | 1.17 | 0.893 | 0.994
AGGUUUGCUAAUCGUCGCAAG [Fam3.1 aminoacylation ribozyme variant] | 1.44 | 2.43 | 1.34 | 1.42 | 1.98 | 1.45
AGUACCCUGGUAAUCGAGUGA [Fam2.1 aminoacylation ribozyme variant] | 7.78 | 47.6 | 3.23 | 3.21 | 8.92 | 8.28
AGUACCCUGGUCAUCGAGAGA [Fam2.1 aminoacylation ribozyme variant] | 0.888 | 1.36 | 0.901 | 0.994 | 0.788 | 1.14
AGUACCCUGGUCAUCGAGUGA [Fam2.1 aminoacylation ribozyme variant] | 13.2 | 28.7 | 6.48 | 6.11 | 13.6 | 12.8
AGUACCCUGGUCGUCGAGUGA [Fam2.1 aminoacylation ribozyme variant] | 1.05 | 8.09 | 1.24 | 1.37 | 1.54 | 1.53
AGUACCCUGGUUAUCGAGUGA [Fam2.1 aminoacylation ribozyme variant] | 7.87 | 37.4 | 4.26 | 3.63 | 9.24 | 9.55
AGUCACCCAGGUCAUCGGGUG [Fam2.2 aminoacylation ribozyme variant] | 4.56 | 57.4 | 4.29 | 5.28 | 4.54 | 4.72
AGUCACCGAGGUCAUCGGGUG [Fam2.2 aminoacylation ribozyme variant] | 5.09 | 32.8 | 4.46 | 4.06 | 5.81 | 4.81
AGUCACCUAAGUCAUCGGGUG [Fam2.2 aminoacylation ribozyme variant] | 6.86 | 69.3 | 4.5 | 4.94 | 6.74 | 6.89
AGUCACCUAGAUCAUCGGGUG [Fam2.2 aminoacylation ribozyme variant] | 3.33 | 17.5 | 3.06 | 3.96 | 4.5 | 3.5
AGUCACCUAGGUCAACGGGUG [Fam2.2 aminoacylation ribozyme variant] | 2.25 | 9.17 | 2.08 | 2.57 | 3.02 | 3.22

Reference: the supplement of paper PMC9233669
